Assay [1] addresses T1, ΔCRD1-TNFR2 protein (with CRD1 deletion), on CHO-S cells (human, UniProt P20333 23-461).
T1 construct: also called CHO-SΔCRD1-TNFR2
T1 sequence: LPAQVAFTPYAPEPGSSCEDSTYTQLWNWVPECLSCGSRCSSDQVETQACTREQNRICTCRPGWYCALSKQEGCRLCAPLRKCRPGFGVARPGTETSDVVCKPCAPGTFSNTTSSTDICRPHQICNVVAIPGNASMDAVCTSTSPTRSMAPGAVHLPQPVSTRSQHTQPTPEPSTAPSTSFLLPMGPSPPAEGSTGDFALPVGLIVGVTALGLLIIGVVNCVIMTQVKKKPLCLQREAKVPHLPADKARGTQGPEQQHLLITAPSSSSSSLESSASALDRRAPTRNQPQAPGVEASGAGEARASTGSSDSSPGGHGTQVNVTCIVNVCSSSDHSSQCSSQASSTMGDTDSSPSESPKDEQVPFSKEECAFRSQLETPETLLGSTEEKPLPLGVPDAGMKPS
As to the kind of experiment: FACS on CHO-S cells with ΔCRD1-TNFR2, AF647 anti-human IgG Fc secondary. The text has this:
(§1) TNFR2 has four cysteine rich domains (CRD). In another experiment, FACS was used to detect the binding of anti-hTNFR2 antibodies to TNFR2 proteins with different structural domains. Secondary antibody (Alexa Fluor® 647 AffiniPure F(ab′) 2 Fragment Goat Anti-Human IgG, Fcγ fragment specific, Jackson ImmunoResearch Laboratories, Inc., Cat #: 151524) was used. The fluorescence-labeled secondary antibody can attach to the Fc region of the anti-hTNFR2 antibodies so that the anti-hTNFR2 antibodies that are bound to the ΔCRD cells can be detected by FACS. Specifically, ΔCRD1-TNFR2 protein (with CRD1 deleteion), ΔCRD2-TNFR2 protein (with CRD2 deleteion), ΔCRD3-TNFR2 protein (with CRD3 deleteion) or ΔCRD4-TNFR2 protein (with CRD4 deleteion) were expressed in CHO-S cells respectively, and then the binding between the cells and different anti-hTNFR2 antibodies was detected.

Assay [2] deals with T2, ΔCRD3-TNFR2 protein (with CRD3 deletion), on CHO-S cells (human, UniProt P20333 23-461).
T2 construct: also called CHO-SΔCRD3-TNFR2; TNFR2 lacking CRD3
T2 sequence: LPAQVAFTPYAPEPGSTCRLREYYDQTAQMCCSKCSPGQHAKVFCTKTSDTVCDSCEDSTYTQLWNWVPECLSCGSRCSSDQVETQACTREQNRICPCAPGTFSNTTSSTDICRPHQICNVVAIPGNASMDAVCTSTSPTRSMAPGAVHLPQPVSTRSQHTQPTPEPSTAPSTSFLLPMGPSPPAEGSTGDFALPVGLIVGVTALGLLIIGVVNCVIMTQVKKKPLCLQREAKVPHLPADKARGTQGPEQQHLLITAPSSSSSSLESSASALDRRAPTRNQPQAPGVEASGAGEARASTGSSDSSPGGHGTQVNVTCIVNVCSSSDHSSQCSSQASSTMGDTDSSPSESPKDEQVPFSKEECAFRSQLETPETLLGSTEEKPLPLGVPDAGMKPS
As to the kind of experiment: FACS on CHO-S cells with ΔCRD3-TNFR2.
Source text: as §1

The target in assay [3] is T3, ΔCRD4-TNFR2 protein (with CRD4 deletion), on CHO-S cells (human, UniProt P20333 23-461).
T3 construct: also called CHO-SΔCRD4-TNFR2; TNFR2 lacking CRD4
T3 sequence: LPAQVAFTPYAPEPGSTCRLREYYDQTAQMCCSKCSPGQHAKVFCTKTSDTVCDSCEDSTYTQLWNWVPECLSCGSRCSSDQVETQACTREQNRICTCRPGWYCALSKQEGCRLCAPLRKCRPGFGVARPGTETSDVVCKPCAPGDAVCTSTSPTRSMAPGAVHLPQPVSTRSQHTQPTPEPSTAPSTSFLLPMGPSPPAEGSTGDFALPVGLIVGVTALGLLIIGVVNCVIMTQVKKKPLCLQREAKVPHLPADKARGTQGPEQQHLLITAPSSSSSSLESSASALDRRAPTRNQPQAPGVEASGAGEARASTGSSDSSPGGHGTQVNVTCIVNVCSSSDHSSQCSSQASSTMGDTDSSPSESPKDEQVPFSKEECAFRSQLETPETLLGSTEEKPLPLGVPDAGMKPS
Description: FACS on CHO-S cells with ΔCRD4-TNFR2, AF647 anti-human IgG Fc secondary.
Source text: as §1

The target in assay [4] is T2, ΔCRD3-TNFR2 protein (with CRD3 …). Description: FACS on CHO-S cells with ΔCRD3-TNFR2, AF647 anti-human IgG Fc secondary.
Source text: as §1

Assay [5] has as its target T4, ΔCRD2-TNFR2 protein (with CRD2 deletion), on CHO-S cells (human, UniProt P20333 23-461).
T4 construct: also called CHO-SΔCRD2-TNFR2
T4 sequence: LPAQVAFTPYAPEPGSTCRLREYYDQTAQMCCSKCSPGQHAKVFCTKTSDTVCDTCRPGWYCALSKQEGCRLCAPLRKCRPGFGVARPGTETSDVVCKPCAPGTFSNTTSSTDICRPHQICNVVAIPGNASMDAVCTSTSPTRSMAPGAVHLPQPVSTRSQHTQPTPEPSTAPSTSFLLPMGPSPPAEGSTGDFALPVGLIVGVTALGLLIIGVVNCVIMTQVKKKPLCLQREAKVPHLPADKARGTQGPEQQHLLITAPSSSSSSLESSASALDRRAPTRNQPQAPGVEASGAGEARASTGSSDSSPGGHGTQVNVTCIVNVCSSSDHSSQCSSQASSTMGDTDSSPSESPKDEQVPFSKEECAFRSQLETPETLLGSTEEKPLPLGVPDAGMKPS
As to the kind of experiment: FACS on CHO-S cells with ΔCRD2-TNFR2, AF647 anti-human IgG Fc secondary.
Source text: as §1

Assay [6] deals with T3, ΔCRD4-TNFR2 protein (with CRD4 …). Description: FACS on CHO-S cells with ΔCRD4-TNFR2.
Source text: as §1

B1: BC-1B6-IgG1-LALA (antibody, V domains shown)
VH: QVQLVESGGGVVQPGRSLRLSCAASGFTFSNFGMHWVRQAPGKGLEWVAVIWYEGSDKYYADSVKGRFTISRDNSKNTLYLQMNSLRAEDTAVYYCARDSSWGFLLYGMDVWGQGTTVTVSS
VL: DVVMTQSPLSLPVTLGQPASISCRSSRSLEYSDGNTYLNWFQQRPGQSPRRLIYKVSNRDSGVPDRFSGSGSGTAFTLKISGVEAEDVGVYYCMQGTHWPPTFGGGTKVEIK
On to B1, for which the “positive rate of binding (% of cells)” value in assay [1] stood at 66.5%; in assay [3], 0.83%; in assay [4] it was 0.44%; in assay [5], 75.6%. The binding result in assay [2] and in assay [6] was “no binding” each time.

The values are drawn from patent US20250019454A1 (BIOCYTOGEN PHARMACEUTICALS BEIJING, published 2025).
